Source: patent US20260008803A1
pKd: −log10 of the molar value.

Experiments:
FcγRIIIa [1] = biological target: FcγRIIIa (UniProt P08637); assay: SPR; fold improvement in binding avidity against commercial rituximab
FcγRIIIa [2] = biological target: FcγRIIIa (UniProt P08637); assay: SPR (Biacore T200, single cycle kinetics, 25 C); antibody captured by anti-human Fab, FcγRIIIa as analyte; 1:1 Langmuir fit
FcγRIIIa [3] = biological target: FcγRIIIa (UniProt P08637); assay: SPR; fold improvement in binding avidity, commercial rituximab as the reference

FcγRIIIa, sequence (P08637 17-208 limits assumed): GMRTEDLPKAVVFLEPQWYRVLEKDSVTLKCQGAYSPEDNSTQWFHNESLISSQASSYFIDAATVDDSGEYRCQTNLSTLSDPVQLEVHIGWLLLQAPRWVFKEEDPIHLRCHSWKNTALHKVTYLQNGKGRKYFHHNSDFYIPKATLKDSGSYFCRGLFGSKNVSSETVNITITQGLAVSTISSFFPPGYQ

Fold (FcγRIIIa [1])	pKd (FcγRIIIa [2])	koff (FcγRIIIa [2])	kon (FcγRIIIa [2])	Fold (FcγRIIIa [3])	Substance
39.9 fold	8.12	0.00206 s⁻¹	268000 M⁻¹ s⁻¹		Rituximab IgG1 homogeneous glycoform with α2,6-linked Neu5Ac-terminated biantennary N-glycan (G2S2, without core fucose) (antibody)
	6.51	0.0705 s⁻¹	231000 M⁻¹ s⁻¹	1 fold	Rituximab (commercial sample; Rituxan, Roche) (antibody)
37.4 fold	8.09	0.002 s⁻¹	244000 M⁻¹ s⁻¹		Rituximab IgG1 homogeneous glycoform with α2,6-linked 3F^ax-Neu5Ac-terminated biantennary N-glycan (without core fucose) (antibody)
